In patent publication US20240294661A1 (Genmab, published 2024):
Numbering of substitutions follows the chain as printed.

B1: Anti-TF HuMab 111 (antibody, IgG1, V domains shown)
VH: QVQLVESGGGVVQPGRSLRLSCAGSGFTFNRYAMYWVRQAPGKGLDWVAVISNDGINKYYADSVKGRFTISRDNSKNTLYLQMNSLRAEDTAVYYCARDHTMVRGAFDYWGQGTLVTVSS
VL: EIVLTQSPATLSLSPGERATLSCRASQSVSSYLAWYQQKPGQAPRLLIYDASNRATGIPARFSGSGSGTDFTLTISSLEPEDFAVYYCQQRSNWPLTFGGGTKVEIK
notes: full length, fully human monoclonal IgG1,kappa
B2: HuMab-TF-044 (antibody, V domains shown)
VH: QVQLVESGGGVVQPGRSLRLSCAASGFTFSDYAMHWVRQAPGKGLEWVAVIPYDGDNKYYADSVKGRFTISRDNSKNTLYLQMNSLRAEDTAVYYCAREDWGLEVDYWGQGALVTVSS
VL: AIQLTQSPSSLSASVGDRVTITCRASQGINSALAWYQQKPGKAPKLLIYDASSLESGVPSRFSGSGSGTDFTLTISSLQPEDFATYYCQQFNSYPLTFGGGTKVEIK
B3: Anti-TF HuMab 098 (antibody, IgG1, V domains shown)
VH: QVQLVQSGAEVRKPGSSVKVSCKASGGSFNNYPIFWVRQAPGQGFEWMGRIIPILGITAYAQKFQGRVTITADKSTSTAYMELNSLRSEDTAVYYCAGGDDLDAFDIWGQGTMVSVSS
VL: DIQMTQSPSSLSASVGDRVTITCRASQGISSWLAWYQQKPEKAPKSLIYAASSLQSGVPSRFSGSGSGTDFTLTISSLQPEDFATYYCQQYNSYPYTFGQGTKLEIK
notes: full length, fully human monoclonal IgG1,kappa; also called HuMab-TF-098
B4: HuMab-TF-013 (antibody, V domains shown)
VH: EVQLVQSGAEVKKPGESLKISCKGSGYSFTSYWIGWVRQMPGKGLEWMGIIYPGDSDTRYSPSFQGQVTISADKSISTAYLQWSSLKASDTAMYYCARIHRGAGYSSSWPGAFDIWGQGTMVTVSS
VL: B3 VL with S31R, N92D, Y94D, Y96I, K103R
B5: Anti-TF HuMab 011 (antibody, IgG1, V domains shown)
VH: EVQLLESGGGLVQPGGSLRLSCAASGFTFSNYAMSWVRQAPGKGLEWVSSISGSGDYTYYTDSVKGRFTISRDNSKNTLYLQMNSLRAEDTAVYYCARSPWGYYLDSWGQGTLVTVSS
VL: B3 VL with S9P, V15A, W32R
notes: full length, fully human monoclonal IgG1,kappa; also called HuMab-TF-011
B6: HuMab-TF-111-mcMMAF (antibody, IgG1, V domains shown)
VH: B1 VH
VL: B1 VL
modifications: mcMMAF drug-linker alkylated to cysteines of the reduced antibody (positions not given)
notes: DAR 4.1 by RP-HPLC, 4.2 by HIC
B7: HuMab-TF-111-vcMMAE (antibody, IgG1, V domains shown)
VH: B1 VH
VL: B1 VL
modifications: vcMMAE drug-linker alkylated to cysteines of the reduced antibody (positions not given)
notes: DAR 4.3 by RP-HPLC, 4.1 by HIC
B8: HuMab-TF-098-vcMMAE (antibody, IgG1, V domains shown)
VH: B3 VH
VL: B3 VL
modifications: vcMMAE drug-linker alkylated to cysteines of the reduced antibody (positions not given)
notes: DAR 3.9 by RP-HPLC, 3.7 by HIC
B9: HuMab-TF-011-vcMMAE (antibody, IgG1, V domains shown)
VH: B5 VH
VL: B3 VL with S9P, V15A, W32R
modifications: vcMMAE drug-linker alkylated to cysteines of the reduced antibody (positions not given)
notes: DAR 3.9 by RP-HPLC, 3.9 by HIC
B10: HuMab-TF-098-mcMMAF (antibody, IgG1, V domains shown)
VH: B3 VH
VL: B3 VL
modifications: mcMMAF drug-linker alkylated to cysteines of the reduced antibody (positions not given)
notes: DAR 4.0 by RP-HPLC, 3.9 by HIC
B11: HuMab-TF-011-mcMMAF (antibody, IgG1, V domains shown)
VH: B5 VH
VL: B3 VL with S9P, V15A, W32R
modifications: mcMMAF drug-linker alkylated to cysteines of the reduced antibody (positions not given)
notes: DAR 3.9 by RP-HPLC, 4.1 by HIC

biological target: T1, membrane-bound tissue factor (TF) on cells (human, UniProt P13726 33-295); test: cell-based or functional assay

Compared with B1, B2 is lower in “% kill, A431 cells, anti-kappa-ETA' assay” value (from here on “% kill, A431 cells”): 92% for the first, 66% for the second.

Going from B3 to B4, the “% kill, A431 cells” value falls from 95% to 80%.

B5 was tested, and the “% kill, A431 cells” value was 96%.

Going from B1 to B2, the “% kill, BxPC3 cells, anti-kappa-ETA' assay” value (“% kill, BxPC3 cells” for short) falls from 98% to 96%.

First: B3
Second: B4
The “% kill, BxPC3 cells” value of the first is higher: 99% for the first, 96% for the second.

With B5 the “% kill, BxPC3 cells” value was 98%.

Going from B1 to B2, the “% kill, MDA-MB-231 cells, anti-kappa-ETA' assay” value (from here on “% kill, MDA-MB-231 cells”) falls from 88% to 44%.

Compared with B3, B4 is lower in “% kill, MDA-MB-231 cells” value: 96% for the first, 56% for the second.

B5 was tested, and the “% kill, MDA-MB-231 cells” value was 88%.

Going from B1 to B2, the “EC50 of cell killing, A431 cells, anti-kappa-ETA' assay” value (shortened to “EC50 of cell killing, A431 cells”) rises from 34 ng/mL to 98 ng/mL (2.9-fold).

First: B3
Second: B4
The “EC50 of cell killing, A431 cells” value of the first is 220-fold lower: 0.09 ng/mL for the first, 20 ng/mL for the second.

In the case of B5, the “EC50 of cell killing, A431 cells” value is reported as 0.39 ng/mL.

B1 and B2 are the same in “EC50 of cell killing, BxPC3 cells, anti-kappa-ETA' assay” value (“EC50 of cell killing, BxPC3 cells” below): 15 ng/mL for the first, 15 ng/mL for the second.

Compared with B3, B4 is 720-fold higher in “EC50 of cell killing, BxPC3 cells” value: 0.013 ng/mL for the first, 9.4 ng/mL for the second.

B5 was tested, and the “EC50 of cell killing, BxPC3 cells” value was 0.26 ng/mL.

Compared with B1, B3 is 32-fold lower in “EC50 of cell killing, MDA-MB-231 cells, anti-kappa-ETA' assay” value: 23 ng/mL for the first, 0.72 ng/mL for the second.

For B5, the “EC50 of cell killing, MDA-MB-231 cells, anti-kappa-ETA' assay” value was 3 ng/mL.

biological target: T1, membrane-bound tissue factor (TF) on …; test: FACS, inhibition of binding of 100 nM FVIIa to TF on MDA-MB-231 cells; one representative experiment
Procedure: MDA-MB-231 cells were washed in PBS to remove serum and plated in 96-well plates (100,000 cells per well). […] Cells were washed with FACS buffer and mean fluorescence intensity (MFI) was measured on a FACSCanto II (Becton Dickinson).

Compared with B3, B5 is 1.9-fold lower in IC50: 1220 ng/mL for the first, 647 ng/mL for the second.

biological target: T1, membrane-bound tissue factor (TF) on …; test: cell-based or functional assay; remark: another data set of the same source

First: B6
Second: B7
The “% kill at 10 µg/mL, A431 cells, ADC killing assay” value (shortened to “% kill at 10 µg/mL, A431 cells”) of the first is lower: 73% for the first, 90% for the second.

Going from B8 to B9, the “% kill at 10 µg/mL, A431 cells” value rises from 92% to 93%.

First: B10
Second: B11
The “% kill at 10 µg/mL, A431 cells” value of the first is higher: 85% for the first, 78% for the second.

Compared with B6, B7 is lower in “% kill at 10 µg/mL, HPAF-II cells, ADC killing assay” value (from here on “% kill at 10 µg/mL, HPAF-II cells”): 74% for the first, 73% for the second.

B8 and B9 are the same in “% kill at 10 µg/mL, HPAF-II cells” value: 71% for the first, 71% for the second.

First: B10
Second: B11
The “% kill at 10 µg/mL, HPAF-II cells” value of the first is higher: 73% for the first, 72% for the second.

Compared with B6, B7 is lower in “% kill at 10 µg/mL, NCI-H441 cells, ADC killing assay” value (“% kill at 10 µg/mL, NCI-H441 cells” below): 62% for the first, 51% for the second.

B8 and B9 are the same in “% kill at 10 µg/mL, NCI-H441 cells” value: 60% for the first, 60% for the second.

Compared with B10, B11 is lower in “% kill at 10 µg/mL, NCI-H441 cells” value: 63% for the first, 53% for the second.

Going from B6 to B7, the “IC50 of cell killing, A431 cells, ADC killing assay” value (“IC50 of cell killing, A431 cells” below) falls from 83 ng/mL to 46 ng/mL (1.8-fold).

B8 and B9 are within 1.5-fold of each other in “IC50 of cell killing, A431 cells” value: 9 ng/mL for the first, 10 ng/mL for the second.

Compared with B10, B11 is 1.7-fold higher in “IC50 of cell killing, A431 cells” value: 13 ng/mL for the first, 22 ng/mL for the second.

Going from B6 to B7, the “IC50 of cell killing, HPAF-II cells, ADC killing assay” value (from here on “IC50 of cell killing, HPAF-II cells”) falls from 15 ng/mL to 4 ng/mL (3.8-fold).

First: B8
Second: B9
The “IC50 of cell killing, HPAF-II cells” value of the first is 3-fold lower: 1 ng/mL for the first, 3 ng/mL for the second.

B10 and B11 are the same in “IC50 of cell killing, HPAF-II cells” value: 5 ng/mL for the first, 5 ng/mL for the second.

B6 and B7 are the same in “IC50 of cell killing, NCI-H441 cells, ADC killing assay” value (from here on “IC50 of cell killing, NCI-H441 cells”): 416 ng/mL for the first, 416 ng/mL for the second.

B8 and B9 are the same in “IC50 of cell killing, NCI-H441 cells” value: 10 ng/mL for the first, 10 ng/mL for the second.

B10 and B11 are within 1.5-fold of each other in “IC50 of cell killing, NCI-H441 cells” value: 4 ng/mL for the first, 5 ng/mL for the second.

biological target: T2, TFECDHis (extracellular domain of tissue factor, amino acid 1-251, with C-terminal His tag) (human, UniProt P13726 33-251); test: ELISA, coated TFECDHis; lower end of the group's range, tied to 011 unconjugated by Table 7 (373)
T2 construct: range 1-251; The stated range 1-251 starts at residue 1 of the precursor; also called recombinant extracellular domain of TF

Work on B5 yielded an EC50 of 370 ng/mL.

biological target: T2, TFECDHis (extracellular domain of …); test: ELISA, coated TFECDHis
Procedure: (§1) Binding of the anti-TF ADCs to TF was measured by ELISA (coated recombinant extracellular domain of TF) and compared with binding of unconjugated anti-TF HuMabs. […] ELISA plates were washed three times with PBS containing 0.05% Tween-20 (PBST), blocked with 200 µL/well PBST at RT for 1 h while shaking (300 rpm), washed three times with PBST and emptied. Subsequently, 100 μl anti-TF ADCs or unconjugated anti-TF HuMabs were added in serial dilutions in PBST and incubated while shaking at RT for 90 min. ELISA plates were washed three times with PBST and emptied. […] Plates were washed three times with PBST, emptied and incubated with 100 μL ABTS solution (50 ml ABTS buffer [Roche] and one ABTS tablet [50 mg; Roche]). After incubation in the dark at RT for 30 min, the reaction was stopped by incubation with 100 μL per well oxalic acid (2% [w/v]; Riedel de Haen) in the dark, for 10 min. Plates were measured at OD 405 nm in an ELISA reader (Biotek Instruments, EL808 Absorbance Microplate Reader).
(§2) Binding curves were analyzed by non-linear regression (sigmoidal dose-response with variable slope) using GraphPad Prism 5 software (GraphPad Software, San Diego, CA, USA).

B1 and B6 are within 1.5-fold of each other in EC50: 377 ng/mL for the first, 416 ng/mL for the second.

B7 and B3 are within 1.5-fold of each other in EC50: 464 ng/mL for the first, 422 ng/mL for the second.

B8 and B9 are within 1.5-fold of each other in EC50: 426 ng/mL for the first, 469 ng/mL for the second.

B10 and B5 are within 1.5-fold of each other in EC50: 401 ng/mL for the first, 373 ng/mL for the second.

B11 was tested, and the EC50 was 431 ng/mL.

biological target: T2, TFECDHis (extracellular domain of …); test: ELISA, coated TFECDHis; upper end of the group's range, tied to 011-vcMMAE by Table 7 (469)
Procedure: as §1, §2

In the case of B9, the EC50 is reported as 470 ng/mL.
